In the supplement of paper PMC10065799, “High-throughput profiling of sequence recognition by tyrosine kinases and SH2 domains using bacterial peptide display” (eLife, 2023):

Assays:
[1] = molecular target: Grb2 SH2 (UniProt P62993); assay: SH2 binding enrichment of the phosphorylated peptide, bacterial display (enrichment ratio); higher = better substrate or ligand; peptides without Tyr show the background
[2] = molecular target: c-Src SH2; assay: as above
[3] = molecular target: SHP2-C SH2; assay: as above
[4] = molecular target: Fyn (UniProt P06241); assay: phosphorylation enrichment, bacterial display (enrichment ratio); higher = better substrate or ligand; peptides without Tyr show the background
[5] = molecular target: FGFR1 (UniProt P11362); assay: as above
[6] = molecular target: EPHB1 (UniProt P54762); assay: as above
[7] = tested on: AncSZ; assay: as above
[8] = tested on: c-Abl (mouse); assay: as above
[9] = molecular target: EPHB2 (UniProt P29323); assay: as above
[10] = molecular target: MERTK (UniProt Q12866); assay: as above
[11] = molecular target: FGFR3 (UniProt P22607); assay: as above
[12] = molecular target: Fes (UniProt P07332); assay: as above
[13] = molecular target: Jak2 (UniProt O60674); assay: as above
[14] = molecular target: Hck (UniProt P08631); assay: as above
[15] = tested on: Fer (mouse); assay: as above
[16] = tested on: c-Src; assay: as above
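Throughout, for SH2 binding enrichment of the phosphorylated peptide, bacterial display: peptide library displayed on the E. coli surface as eCPX fusions, selected cells deep-sequenced, score is each peptide's frequency after selection divided by its frequency in the input.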
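Throughout, for phosphorylation enrichment, bacterial display: 11-residue human phosphosite peptides and single-mutation variants displayed on the E. coli surface, counted by deep sequencing, each peptide's frequency after selection divided by its frequency in the unselected input library; frequency after pTyr selection over input frequency; kinase dosed for 20-30% of maximal phosphorylation in three min.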

Chain of FGFR1 (P11362 whole entry, looked up): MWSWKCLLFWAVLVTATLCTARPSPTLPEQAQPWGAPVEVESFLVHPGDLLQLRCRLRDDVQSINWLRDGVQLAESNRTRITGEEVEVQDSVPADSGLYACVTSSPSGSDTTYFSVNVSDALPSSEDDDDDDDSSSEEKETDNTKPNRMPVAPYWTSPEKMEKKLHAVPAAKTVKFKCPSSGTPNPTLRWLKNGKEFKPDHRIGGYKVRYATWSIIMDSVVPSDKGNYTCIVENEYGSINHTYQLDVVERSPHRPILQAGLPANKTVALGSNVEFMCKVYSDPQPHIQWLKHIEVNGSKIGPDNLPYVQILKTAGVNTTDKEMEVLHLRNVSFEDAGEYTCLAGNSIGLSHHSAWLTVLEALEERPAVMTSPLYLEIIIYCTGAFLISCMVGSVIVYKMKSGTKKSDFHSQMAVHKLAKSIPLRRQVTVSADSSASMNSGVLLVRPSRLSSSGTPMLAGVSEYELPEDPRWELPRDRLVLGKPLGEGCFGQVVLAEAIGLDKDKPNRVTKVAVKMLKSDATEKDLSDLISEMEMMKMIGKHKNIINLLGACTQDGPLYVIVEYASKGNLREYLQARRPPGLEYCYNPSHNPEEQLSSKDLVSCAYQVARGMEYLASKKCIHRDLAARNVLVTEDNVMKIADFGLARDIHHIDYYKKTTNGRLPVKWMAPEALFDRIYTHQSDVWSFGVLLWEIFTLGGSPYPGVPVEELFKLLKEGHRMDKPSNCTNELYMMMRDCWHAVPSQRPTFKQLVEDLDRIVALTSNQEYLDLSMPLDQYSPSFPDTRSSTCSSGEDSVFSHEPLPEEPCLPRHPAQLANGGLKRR
Chain of EPHB1 (P54762 whole entry, looked up): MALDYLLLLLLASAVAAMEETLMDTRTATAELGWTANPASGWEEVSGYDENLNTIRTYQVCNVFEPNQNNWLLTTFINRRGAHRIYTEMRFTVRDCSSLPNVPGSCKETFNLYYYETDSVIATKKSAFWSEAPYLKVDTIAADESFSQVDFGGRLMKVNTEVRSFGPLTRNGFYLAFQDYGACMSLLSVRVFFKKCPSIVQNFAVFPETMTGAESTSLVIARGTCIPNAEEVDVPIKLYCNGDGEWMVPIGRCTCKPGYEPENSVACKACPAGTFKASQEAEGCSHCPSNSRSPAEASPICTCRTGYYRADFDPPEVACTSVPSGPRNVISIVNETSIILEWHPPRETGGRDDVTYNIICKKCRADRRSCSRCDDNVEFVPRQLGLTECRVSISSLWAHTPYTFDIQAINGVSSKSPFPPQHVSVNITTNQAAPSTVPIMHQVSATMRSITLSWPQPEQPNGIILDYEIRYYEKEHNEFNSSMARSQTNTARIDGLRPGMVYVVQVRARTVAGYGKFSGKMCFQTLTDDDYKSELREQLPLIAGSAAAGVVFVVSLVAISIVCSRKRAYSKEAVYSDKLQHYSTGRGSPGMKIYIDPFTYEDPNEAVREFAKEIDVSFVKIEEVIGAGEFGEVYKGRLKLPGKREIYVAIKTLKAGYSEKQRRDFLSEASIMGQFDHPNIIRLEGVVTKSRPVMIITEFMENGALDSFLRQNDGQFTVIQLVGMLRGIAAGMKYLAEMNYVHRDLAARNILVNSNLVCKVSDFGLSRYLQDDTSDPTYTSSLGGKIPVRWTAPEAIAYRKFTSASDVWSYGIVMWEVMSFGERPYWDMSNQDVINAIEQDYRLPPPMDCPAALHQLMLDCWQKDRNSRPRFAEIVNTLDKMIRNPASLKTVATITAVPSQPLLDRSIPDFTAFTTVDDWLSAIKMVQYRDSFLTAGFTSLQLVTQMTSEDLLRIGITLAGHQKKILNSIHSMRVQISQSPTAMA
Chain of MERTK (Q12866 whole entry, looked up): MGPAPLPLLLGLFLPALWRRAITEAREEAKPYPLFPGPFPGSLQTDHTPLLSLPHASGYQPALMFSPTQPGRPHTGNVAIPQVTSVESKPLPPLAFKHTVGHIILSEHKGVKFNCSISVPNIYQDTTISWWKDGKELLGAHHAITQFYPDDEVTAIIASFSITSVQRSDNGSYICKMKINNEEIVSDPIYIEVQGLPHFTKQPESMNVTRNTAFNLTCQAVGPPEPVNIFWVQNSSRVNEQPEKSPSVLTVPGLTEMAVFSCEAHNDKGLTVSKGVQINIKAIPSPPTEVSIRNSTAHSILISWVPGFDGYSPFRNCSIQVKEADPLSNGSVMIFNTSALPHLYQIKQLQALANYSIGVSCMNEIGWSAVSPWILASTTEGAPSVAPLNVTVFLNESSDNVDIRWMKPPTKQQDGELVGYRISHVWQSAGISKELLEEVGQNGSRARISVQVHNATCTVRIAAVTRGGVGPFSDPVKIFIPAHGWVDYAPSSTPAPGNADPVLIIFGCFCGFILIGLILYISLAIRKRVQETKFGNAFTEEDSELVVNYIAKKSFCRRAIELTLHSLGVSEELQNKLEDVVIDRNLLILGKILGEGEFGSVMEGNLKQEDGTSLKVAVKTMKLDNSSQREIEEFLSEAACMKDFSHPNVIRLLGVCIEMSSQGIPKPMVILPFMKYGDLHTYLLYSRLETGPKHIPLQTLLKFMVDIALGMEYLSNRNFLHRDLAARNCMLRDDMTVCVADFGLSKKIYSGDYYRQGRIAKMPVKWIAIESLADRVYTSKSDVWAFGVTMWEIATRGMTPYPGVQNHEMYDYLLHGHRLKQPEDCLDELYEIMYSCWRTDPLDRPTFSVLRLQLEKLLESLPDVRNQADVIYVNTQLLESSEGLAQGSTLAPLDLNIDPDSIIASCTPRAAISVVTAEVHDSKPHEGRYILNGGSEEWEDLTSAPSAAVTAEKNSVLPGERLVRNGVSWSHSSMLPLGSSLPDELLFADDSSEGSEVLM
Chain of Fes (P07332 whole entry, looked up): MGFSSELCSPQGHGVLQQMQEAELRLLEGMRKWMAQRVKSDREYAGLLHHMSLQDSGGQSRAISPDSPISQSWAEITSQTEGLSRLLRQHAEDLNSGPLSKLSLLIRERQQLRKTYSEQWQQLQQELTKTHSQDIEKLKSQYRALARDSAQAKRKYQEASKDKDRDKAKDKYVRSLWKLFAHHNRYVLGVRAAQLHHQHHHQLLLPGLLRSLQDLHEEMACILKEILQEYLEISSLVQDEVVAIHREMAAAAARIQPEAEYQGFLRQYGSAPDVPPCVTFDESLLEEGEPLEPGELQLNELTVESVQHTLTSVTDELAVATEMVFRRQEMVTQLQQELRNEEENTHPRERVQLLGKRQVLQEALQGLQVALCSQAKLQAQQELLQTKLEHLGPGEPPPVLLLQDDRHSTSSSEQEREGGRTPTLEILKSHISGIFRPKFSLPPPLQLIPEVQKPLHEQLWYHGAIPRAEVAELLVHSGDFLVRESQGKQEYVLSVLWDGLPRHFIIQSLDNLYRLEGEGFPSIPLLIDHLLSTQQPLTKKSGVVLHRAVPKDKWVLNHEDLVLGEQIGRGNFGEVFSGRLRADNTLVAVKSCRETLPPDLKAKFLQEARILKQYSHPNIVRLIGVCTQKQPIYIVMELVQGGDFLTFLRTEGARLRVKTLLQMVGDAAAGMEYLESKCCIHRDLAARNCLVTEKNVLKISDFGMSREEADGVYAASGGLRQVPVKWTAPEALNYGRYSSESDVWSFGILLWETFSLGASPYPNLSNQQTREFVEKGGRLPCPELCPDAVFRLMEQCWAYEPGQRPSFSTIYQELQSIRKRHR
Chain of Fyn (P06241 whole entry, looked up): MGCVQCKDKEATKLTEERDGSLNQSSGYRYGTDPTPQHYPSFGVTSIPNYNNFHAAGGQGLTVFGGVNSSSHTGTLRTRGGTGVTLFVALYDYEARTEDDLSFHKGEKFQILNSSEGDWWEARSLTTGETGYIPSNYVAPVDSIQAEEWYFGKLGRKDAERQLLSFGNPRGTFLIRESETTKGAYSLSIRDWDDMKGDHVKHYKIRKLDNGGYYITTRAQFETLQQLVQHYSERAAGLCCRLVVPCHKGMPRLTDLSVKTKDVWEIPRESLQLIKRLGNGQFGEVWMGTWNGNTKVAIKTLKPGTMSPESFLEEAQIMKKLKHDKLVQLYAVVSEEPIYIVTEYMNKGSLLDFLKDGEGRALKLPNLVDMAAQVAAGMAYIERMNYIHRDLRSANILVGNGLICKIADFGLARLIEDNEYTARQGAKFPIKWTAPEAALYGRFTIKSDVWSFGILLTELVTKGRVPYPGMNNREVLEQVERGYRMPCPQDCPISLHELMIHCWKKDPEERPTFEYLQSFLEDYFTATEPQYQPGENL
Chain of Hck (P08631 whole entry, looked up): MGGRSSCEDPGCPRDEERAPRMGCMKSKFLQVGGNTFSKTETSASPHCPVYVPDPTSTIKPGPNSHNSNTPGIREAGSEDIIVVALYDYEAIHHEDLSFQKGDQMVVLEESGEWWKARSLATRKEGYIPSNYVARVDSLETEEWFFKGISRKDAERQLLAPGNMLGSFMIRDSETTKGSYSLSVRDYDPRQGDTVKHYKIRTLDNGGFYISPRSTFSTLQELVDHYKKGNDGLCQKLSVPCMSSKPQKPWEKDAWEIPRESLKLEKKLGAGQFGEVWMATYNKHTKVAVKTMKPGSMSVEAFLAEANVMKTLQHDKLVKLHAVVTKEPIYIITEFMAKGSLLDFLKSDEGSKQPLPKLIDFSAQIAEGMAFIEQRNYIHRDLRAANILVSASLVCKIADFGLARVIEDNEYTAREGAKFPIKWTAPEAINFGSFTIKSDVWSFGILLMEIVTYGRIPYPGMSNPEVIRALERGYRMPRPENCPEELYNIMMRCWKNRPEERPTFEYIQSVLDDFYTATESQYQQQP

Sequence | SH2 binding enrichment [1] | SH2 binding enrichment [2] | SH2 binding enrichment [3] | phosphorylation enrichment [4] | phosphorylation enrichment [5] | phosphorylation enrichment [6] | phosphorylation enrichment [7] | phosphorylation enrichment [8] | phosphorylation enrichment [9] | phosphorylation enrichment [10] | phosphorylation enrichment [11] | phosphorylation enrichment [12] | phosphorylation enrichment [13] | phosphorylation enrichment [14] | phosphorylation enrichment [15] | phosphorylation enrichment [16]
CKSVHYDLVFL [COL22A1_Y37] | 0.775 | 0.986 | 0.613 | 0.554 | 0.532 | 0.806 | 1.24 | 0.93 | 0.739 | 1.56 | 0.866 | 1.38 | 1.19 | 0.632 | 9.46 | 0.528
CPFNLYAAQLS [HGD_Y40_E42A_YF] | 0.726 | 0.537 | 0.811 | 0.648 | 0.573 | 1.79 | 1.2 | 0.874 | 1.24 | 1.7 | 0.816 | 1.29 | 1.02 | 1.09 | 0.76 | 0.961
CQASLYPSNHD [LRIG1_Y996_G993A] | 0.781 | 0.475 | 0.694 | 0.571 | 0.577 | 0.721 | 1.08 | 0.798 | 0.624 | 0.42 | 0.792 | 1.3 | 1.01 | 0.595 | 0.524 | 0.449
CSHMFYGKQCC [ADAMTS16_Y1211_K1209M] | 1.14 | 0.772 | 0.827 | 0.653 | 0.464 | 0.587 | 0.839 | 0.713 | 0.543 | 0.485 | 0.606 | 1.01 | 0.852 | 0.519 | 0.539 | 0.573
CTLLPYYSAPV [DGKE_Y269_R273P] | 0.71 | 1.53 | 0.54 | 0.792 | 1.43 | 2.04 | 2.02 | 1.65 | 2.29 | 4.17 | 1.3 | 1.71 | 1.54 | 1.14 | 2.17 | 1.25
CYSSEYHYVGG [CTSC_Y345_Y340C] | 0.884 | 2.04 | 0.943 | 1.57 | 13 | 5.54 | 4.45 | 2.79 | 5.91 | 4.76 | 9.68 | 1.1 | 1.77 | 2.29 | 1.26 | 2.02
DAGTDYVGISC [FREM2_Y2061_R2066C] | 0.991 | 0.658 | 0.898 | 0.522 | 1.05 | 0.578 | 1.31 | 0.688 | 0.619 | 0.4 | 0.959 | 0.961 | 0.732 | 0.478 | 0.558 | 0.546
DCVRMYELVHR [GLE1_Y135_G130D] | 0.925 | 2.56 | 0.746 | 0.754 | 0.594 | 7.46 | 1.21 | 1.03 | 3.53 | 3.03 | 0.831 | 1.31 | 1.09 | 2.57 | 7.12 | 1.3
DEDEEYEYMNR [ERBB3_Y1197] | 1.02 | 0.634 | 0.926 | 0.523 | 0.511 | 0.587 | 1.38 | 0.668 | 0.712 | 0.487 | 0.62 | 1.23 | 1.19 | 0.567 | 0.556 | 0.54
DEIPLYLKGGV [COX7A2_Y44] | 0.83 | 0.454 | 0.716 | 0.492 | 0.5 | 0.566 | 0.79 | 0.593 | 0.508 | 0.391 | 0.656 | 0.962 | 0.854 | 0.522 | 0.485 | 0.422
DERQPYVHMNG [IGF1R_Y1346_A1347V] | 0.729 | 0.705 | 0.704 | 0.438 | 0.592 | 0.436 | 0.696 | 0.503 | 0.5 | 0.428 | 0.627 | 0.81 | 0.786 | 0.471 | 0.446 | 0.484
DFAIVYGTIIL [GPR179_Y460_G455D] | 0.591 | 0.343 | 0.584 | 0.692 | 0.565 | 0.732 | 1.52 | 0.846 | 0.777 | 0.402 | 1.1 | 1.51 | 1.16 | 0.665 | 0.727 | 0.483
DGLALYTGSAL [COL6A3_Y524_S521L] | 0.695 | 0.36 | 0.46 | 0.614 | 0.479 | 0.968 | 1.09 | 0.749 | 0.936 | 0.55 | 0.723 | 1.17 | 0.901 | 0.901 | 0.758 | 0.635
DGQVNYEELVQ [CALM1_Y139_F142L] | 0.835 | 0.745 | 0.733 | 0.704 | 0.819 | 1.04 | 1.47 | 0.781 | 0.826 | 0.659 | 0.735 | 1.25 | 1.43 | 0.594 | 0.639 | 0.614
DHAGMYGLGDR [MAPT_Y18_T17M] | 0.791 | 0.44 | 0.472 | 0.523 | 0.391 | 0.348 | 0.556 | 0.411 | 0.541 | 0.371 | 0.393 | 0.558 | 0.45 | 0.471 | 0.388 | 0.454
DHCNQYEQQKM [CHD7_Y75_Y72C] | 0.971 | 0.825 | 0.879 | 0.534 | 0.424 | 0.545 | 0.842 | 0.661 | 0.714 | 0.443 | 0.682 | 0.823 | 0.699 | 0.499 | 0.499 | 0.541
DISEPYKVYRI [IRF8_Y107] | 0.901 | 0.479 | 0.795 | 0.445 | 0.481 | 0.537 | 0.911 | 0.62 | 0.517 | 0.487 | 0.549 | 0.88 | 0.78 | 1.34 | 0.497 | 0.622
DKATEYIQFVR [MAX_Y70_M74V_YF] | 0.789 | 0.459 | 0.73 | 0.442 | 0.519 | 0.503 | 0.74 | 0.574 | 0.53 | 0.41 | 0.551 | 0.705 | 0.55 | 0.636 | 0.465 | 0.556
DMDATYRPMYS [JUP_Y701] | 0.747 | 0.513 | 0.521 | 0.563 | 0.544 | 0.441 | 0.678 | 0.656 | 0.525 | 0.407 | 0.63 | 0.768 | 0.65 | 0.677 | 0.463 | 0.568
DNQFAYLKAII [HNF4A_Y288_E285Q_YF] | 0.782 | 0.353 | 0.62 | 0.396 | 0.473 | 0.43 | 1.16 | 0.711 | 0.595 | 0.369 | 0.702 | 1.33 | 1.02 | 0.393 | 0.592 | 0.372
DPEATYTTSGG [EPHA2_Y772] | 0.671 | 0.435 | 0.528 | 0.523 | 0.502 | 0.533 | 1.22 | 0.943 | 0.57 | 0.418 | 0.754 | 1.19 | 1.09 | 0.591 | 0.502 | 0.789
DRIVNYSRASI [ATP7A_Y1459] | 0.768 | 0.498 | 0.88 | 0.374 | 0.423 | 0.432 | 0.538 | 0.585 | 0.4 | 0.383 | 0.426 | 0.589 | 0.48 | 0.405 | 0.41 | 0.37

More lines, main results first:

SH2 binding enrichment [1] | SH2 binding enrichment [2] | SH2 binding enrichment [3] | Sequence | phosphorylation enrichment [4] | phosphorylation enrichment [5] | phosphorylation enrichment [6] | phosphorylation enrichment [7] | phosphorylation enrichment [8] | phosphorylation enrichment [9] | phosphorylation enrichment [10] | phosphorylation enrichment [11] | phosphorylation enrichment [12] | phosphorylation enrichment [13] | phosphorylation enrichment [14] | phosphorylation enrichment [15] | phosphorylation enrichment [16]
1.93 | 1.53 | 1.65 | CLLHCYFSQIR [MCM3AP_Y873] | 0.327 | 0.518 | 0.497 | 0.856 | 0.667 | 0.428 | 0.401 | 0.867 | 1.32 | 1.21 | 0.413 | 0.391 | 0.368
0.968 | 0.6 | 0.757 | CNNFICGGCRG [SPINT2_Y163_Y163C] | 0.519 | 0.5 | 0.466 | 0.963 | 0.697 | 0.515 | 0.488 | 0.644 | 0.902 | 0.87 | 0.504 | 0.443 | 0.415
0.618 | 0.522 | 0.483 | CPEARYNRSPI [PTAR1_Y42] | 0.441 | 0.419 | 0.485 | 0.699 | 0.55 | 0.458 | 0.433 | 0.617 | 0.859 | 0.641 | 0.492 | 0.435 | 0.399
1.62 | 2.21 | 1.62 | CTNIHYNFMCN [TP53_Y234_T231N_YF] | 0.456 | 0.554 | 0.436 | 0.8 | 0.655 | 0.597 | 0.423 | 0.714 | 0.974 | 0.693 | 0.426 | 0.481 | 0.562
1.65 | 1.67 | 2.26 | CTTIHYHFMCN [TP53_Y234_N235H_YF] | 0.542 | 0.599 | 0.549 | 1.1 | 0.785 | 0.637 | 0.441 | 0.729 | 1.06 | 0.902 | 0.48 | 0.632 | 0.488
1.52 | 4.85 | 6.45 | CTTIHYTYMCN [TP53_Y234_N235T] | 0.496 | 0.724 | 0.608 | 1.08 | 0.672 | 0.761 | 0.517 | 0.704 | 1.07 | 1.04 | 0.524 | 0.591 | 0.549
0.896 | 0.604 | 0.6 | DAKAIYDFTDT [PDK1_Y136] | 7.96 | 0.604 | 1.43 | 1.3 | 1.03 | 1.85 | 5.88 | 0.665 | 1.15 | 0.994 | 3.18 | 5.43 | 5.87
1.06 | 0.657 | 1.21 | DEEPPYRGPFC [SASH1_Y551] | 0.437 | 0.525 | 0.509 | 0.863 | 0.673 | 0.396 | 0.332 | 0.656 | 0.895 | 0.697 | 0.389 | 0.434 | 0.493
0.883 | 0.735 | 0.541 | DFFDLYGGQKF [PTPN11_Y66_E69Q_YF] | 7.17 | 0.609 | 0.464 | 1.13 | 0.866 | 0.662 | 0.567 | 0.715 | 0.94 | 0.931 | 8.96 | 0.82 | 6.89
1.46 | 0.759 | 1.32 | DFKIIYIAPMR [SNRNP200_Y540] | 0.522 | 0.449 | 0.586 | 1.21 | 4.59 | 0.486 | 0.437 | 0.616 | 1.22 | 1.18 | 0.556 | 0.447 | 0.572
0.937 | 0.522 | 0.983 | DLVHPYVHKIL [SF3B1_Y570_R568H] | 0.495 | 0.457 | 0.468 | 0.717 | 0.655 | 0.51 | 0.435 | 0.567 | 0.841 | 1.03 | 0.432 | 0.497 | 0.402
